Sequences and labels used below:
B1: OR4K15 (parent)
chain: GUUAACGGUCAUAGGCCAUGGAAACUAGGAGCACCAUUUCGCUGCCAGUGAAGAAAUGAACAAAGAAAAUCUGGGCCAGGCAGGCAUCAAAAGAAAUAGUCUUGCGCUCAACCAGAAAGUCUGUAAUCAUUUUAAGGGUA

For 41 variants, self-cleavage results are on record in the RNAGym collection of RNA variant scans (doi:10.7554/elife.90254).

Variants of B1 are the subject of this series. Briefly: self-cleavage, relative activity (ratio to wild type); higher = more cleavage; in vitro, sequencing; the parent is a self-cleaving ribozyme.
As for GUUAACGGUCAUAGGCCAUGGAAACUAGGGGCACCAUUUCGCCGCCAGUGAAGAAAUGAACAAAGAAAAUCUGGGCCAGGCAGGCAUCAAAAGAAAUAGUCUUGCGCUCAACCAGAAAGUCUGUAAUCAUUUUAAGGGUA [A30G U43C], the self-cleavage was found to be 1.39.

Turning to GUUAACGGUCAUAGGCCAUGGAAACUAGGGGCACCAUUUCGCUGCCAGUGAAGAAAUGAACAAAGAAAAUCUGGGCCAGGCAGGCAUCAAAAGAAAUAGUCUUGCGCUCAACCAGAAAGUCUGUAAUCAUCUUAAGGGUA [A30G U131C], the self-cleavage was determined as 0.95.

As for GUUAACGGUCAUAGGCCAUGGAAACUAGGUGCACCAUUUCGCUGCCAGUGAAGAAAUGAACAAAGAAAAUCUGGGCCAGGCAGGCAUCAAAAGAAAUAGUCUUGCGCUCAACCAGAAAGUCUGUAAUCAUUUUAUGGGUA [A30U A135U], the self-cleavage came out at 1.23. In the case of GUUAACGGUCAUAGGCCAUGGAAACUAGGUGCACCAUUUCGCUGCCGGUGAAGAAAUGAACAAAGAAAAUCUGGGCCAGGCAGGCAUCAAAAGAAAUAGUCUUGCGCUCAACCAGAAAGUCUGUAAUCAUUUUAAGGGUA [A30U A47G] it was 0.97. GUUAACGGUCAUAGGCCAUGGAAACUAGGGGCACCAUUUCGCUGCCAGUGAAGAAAUGAACAAAGAAAAUCUGGGCCAGGCAGGCAUCAAAAGAAAUAGUCUUGCGCCCAACCAGAAAGUCUGUAAUCAUUUUAAGGGUA [A30G U108C]: the self-cleavage was 0.02. For the variant GUUAACGGUCAUAGGCCAUGGAAACUAGGUGCACCAUUUCGCUGCCAGUGAAGAAAUGAACAAAGAAAAUCUGGGCCAGGCAGGCAUCAAAGGAAAUAGUCUUGCGCUCAACCAGAAAGUCUGUAAUCAUUUUAAGGGUA [A30U A92G], the self-cleavage is 0.91. In the case of GUUAACGGUCAUAGGCCAUGGAAACUAGGUGCACCAUUUCGCUGCCAGUGAAGAAAUGAACAAAGAAAAUCUGGGCCAGGCAGGCAUCAAAAGAAAUAGUCUUGCGCUCAACCAGAAAGUCUGUGAUCAUUUUAAGGGUA [A30U A125G] it was 0.5; in that of GUUAACGGUCAUAGGCCAUGGAAACUAGGUGCACCAUUUCGCUGCCAGUGAAGAAAUGAACAAAGAAAAUCUGGGCCAGGCAGGCAUCAAAAGAAAUAGUAUUGCGCUCAACCAGAAAGUCUGUAAUCAUUUUAAGGGUA [A30U C101A], 0.25. Next, GUUAACGGUCAUAGGCCAUGGAAACUAGGGGCACCAUUUCGCUGCCAGUGAAGAAAAGAACAAAGAAAAUCUGGGCCAGGCAGGCAUCAAAAGAAAUAGUCUUGCGCUCAACCAGAAAGUCUGUAAUCAUUUUAAGGGUA [A30G U57A]: 1.15.

For the variant GUUAACGGUCAUAGGCCAUGGAAACUAGGGGCACCAUUUCGCUGCCAGUGAAGAAAGGAACAAAGAAAAUCUGGGCCAGGCAGGCAUCAAAAGAAAUAGUCUUGCGCUCAACCAGAAAGUCUGUAAUCAUUUUAAGGGUA [A30G U57G], the self-cleavage stood at 1.24. In the case of GUUAACGGUCAUAGGCCAUGGAAACUAGGGGCACCAUUUCGCUGCCAGUGAAGAAAUGAACAAAGAAAAUCUGGGCCAGGCAGGCAUCAAAAGAAAUAGUCUCGCGCUCAACCAGAAAGUCUGUAAUCAUUUUAAGGGUA [A30G U103C], the self-cleavage was 1.09.

For GUUAACGGUCAUAGGCCAUGGAAACUAGGUGCACCAUUUCGCUGCCAGUGAAGAAAUGAACGAAGAAAAUCUGGGCCAGGCAGGCAUCAAAAGAAAUAGUCUUGCGCUCAACCAGAAAGUCUGUAAUCAUUUUAAGGGUA [A30U A62G], the self-cleavage came to 1.16. In the case of GUUAACGGUCAUAGGCCAUGGAAACUAGGUGCACCAUUUCGCUGCCAGUGAAGAAAUGAACAAAGAAAAUCUGGGCCAGGCAGGCAUCUAAAGAAAUAGUCUUGCGCUCAACCAGAAAGUCUGUAAUCAUUUUAAGGGUA [A30U A89U] it was 1.55; in that of GUUAACGGUCAUAGGCCAUGGAAACUAGGUGCACCAUUUCGCUGCCAGUGAAGAAAUGAACAAAGAAAAUCUGGGCCAGGCAGGCAUCAAUAGAAAUAGUCUUGCGCUCAACCAGAAAGUCUGUAAUCAUUUUAAGGGUA [A30U A91U], 0.83; in that of GUUAACGGUCAUAGGCCAUGGAAACUAGGGGCACCAUUUCGCUGCCAGUGAAGAAAUGAACAAAGAAAAUCUGGGCCAGGCAGGCAACAAAAGAAAUAGUCUUGCGCUCAACCAGAAAGUCUGUAAUCAUUUUAAGGGUA [A30G U87A], 0.88. For GUUAACGGUCAUAGGCCAUGGAAACUAGGGGCACCAUUUCGCUGCCAGUGAAGAAAUGAACAAAGAAAAUCUGGGCCAGGCAGGCAUCAAAAGAAAUAGUCCUGCGCUCAACCAGAAAGUCUGUAAUCAUUUUAAGGGUA [A30G U102C], the self-cleavage came out at 1.21. Next, GUUAACGGUCAUAGGCCAUGGAAACUAGGGGCACCAUUUCGCUGCCAGUGAAGAAAUGAACAAAGAAAAUCUGGGCCAGGCAGGCAUCAAAAGAAAUAGUCAUGCGCUCAACCAGAAAGUCUGUAAUCAUUUUAAGGGUA [A30G U102A]: 0.78; GUUAACGGUCAUAGGCCAUGGAAACUAGGUGCACCGUUUCGCUGCCAGUGAAGAAAUGAACAAAGAAAAUCUGGGCCAGGCAGGCAUCAAAAGAAAUAGUCUUGCGCUCAACCAGAAAGUCUGUAAUCAUUUUAAGGGUA [A30U A36G]: 1.71.

As to GUUAACGGUCAUAGGCCAUGGAAACUAGGUGCACCAUUUCGCUGCCAGUGAAGAAAUGAACAAAGAAAAUCUGGGCCAGGCAGGCAUCAAAAGAGAUAGUCUUGCGCUCAACCAGAAAGUCUGUAAUCAUUUUAAGGGUA [A30U A95G], the self-cleavage stood at 0.89.

As to GUUAACGGUCAUAGGCCAUGGAAACUAGGGGCACCAUUUCGCUGCCAGUGAAGAAAUGAACAAAGAAAAUCUGGGCCAGGCAGGCAUCAAAAGAAACAGUCUUGCGCUCAACCAGAAAGUCUGUAAUCAUUUUAAGGGUA [A30G U97C], the self-cleavage came out at 1.23. In the case of GUUAACGGUCAUAGGCCAUGGAAACUAGGUGCACCAUUUCGCUGCCAGUGAAGAAAUGAACAAAGAAAAUCUGGGCCAGGCAGGCAUCAAAAGAAAUAGUCUUGUGCUCAACCAGAAAGUCUGUAAUCAUUUUAAGGGUA [A30U C105U] it was 0.4; in that of GUUAACGGUCAUAGGCCAUGGAAACUAGGUGCACCAUUUCGCUGCCAGUGAAGAAAUGAACAAAGAAAAUCUGGGCCAGGCAGGCAUCAAAAGAAAUAGUCUUGCGCUCAGCCAGAAAGUCUGUAAUCAUUUUAAGGGUA [A30U A111G], 0.02; in that of GUUAACGGUCAUAGGCCAUGGAAACUAGGUGCACCAUUUCGCUGCCAGUGAAGAAAUGAACAAAGAAAAUCUGGGCCUGGCAGGCAUCAAAAGAAAUAGUCUUGCGCUCAACCAGAAAGUCUGUAAUCAUUUUAAGGGUA [A30U A78U], 0.2. In the case of GUUAACGGUCAUAGGCCAUGGAAACUAGGGGCACCAUUUCGCUGCCAGUGAAGAAAUGAACAAAGAAAAUCUGGGCCAGGCAGGCAUCAAAAGAAAUAGUCUUGCGCUCAACCAGAAAGCCUGUAAUCAUUUUAAGGGUA [A30G U120C] it was 1.04. Next, GUUAACGGUCAUAGGCCAUGGAAACUAGGGGCACCAUUUCGCUGCCAGUGAAGAAAUGAACAAAGAAAAUCUGGGCCAGGCAGGCAUCAAAAGAAAUAGUCUUGCGCUCAACCAGAAAGACUGUAAUCAUUUUAAGGGUA [A30G U120A]: 1.3; GUUAACGGUCAUAGGCCAUGGAAACUAGGUGCACCAUUUCGCUGCCAGUGAAGAAAUGAACAAAGAAAAUCUGGGCCAGGCUGGCAUCAAAAGAAAUAGUCUUGCGCUCAACCAGAAAGUCUGUAAUCAUUUUAAGGGUA [A30U A82U]: 0.23; GUUAACGGUCAUAGGCCAUGGAAACUAGGUGCACCAUUUCGCUGCCAGUGAAGAAAUGUACAAAGAAAAUCUGGGCCAGGCAGGCAUCAAAAGAAAUAGUCUUGCGCUCAACCAGAAAGUCUGUAAUCAUUUUAAGGGUA [A30U A59U]: 1.6. As for GUUAACGGUCAUAGGCCAUGGAAACUAGGUGCACCAUUUCGCUGCCAGUGAAGAAAUGAACAAAGGAAAUCUGGGCCAGGCAGGCAUCAAAAGAAAUAGUCUUGCGCUCAACCAGAAAGUCUGUAAUCAUUUUAAGGGUA [A30U A66G], the self-cleavage is 1.68.

In the case of GUUAACGGUCAUAGGCCAUGGAAACUAGGUGCACCAUUUCGCUGCCAGUGAAGAAAUGAACAAAGUAAAUCUGGGCCAGGCAGGCAUCAAAAGAAAUAGUCUUGCGCUCAACCAGAAAGUCUGUAAUCAUUUUAAGGGUA [A30U A66U], the self-cleavage worked out at 0.65. Next, GUUAACGGUCAUAGGCCAUGGAAACUAGGUGCACCAUUUCGCUGCCAGUGAAGAAAUGAACAAAGAAAAUCUGGGCCAGGCAGGCAUCAAAAGAAAUAGUCUUGCGCUCAACCAGAAAGUCUGUAAUCAUUUUGAGGGUA [A30U A134G]: 1.06; GUUAACGGUCAUAGGCCAUGGAAACUAGGUGCACCAUUUCGCUGCCAGUGAAGAAAUGAACAAAGAAAAUCUGGGCCAGGCAGGCAUCAAAAGAAAUAGUCUUGCGCUCAACCAGAAAGUCUGUAGUCAUUUUAAGGGUA [A30U A126G]: 1.03; GUUAACGGUCAUAGGCCAUGGAAACUAGGGGCACCAUUUCGCUGCCAGUGAAGAAAUGAACAAAGAAAAUCUGGGCCAGGCAGGCAUCAAAAGAAAUAGUCUUGCGCUCAACCAGAAAGUCUGUAAUCAUUGUAAGGGUA [A30G U132G]: 0.69.

Regarding GUUAACGGUCAUAGGCCAUGGAAACUAGGUGCACCAUUUCGCUGCCAGUGAAGAAAUGAACAAAGAAGAUCUGGGCCAGGCAGGCAUCAAAAGAAAUAGUCUUGCGCUCAACCAGAAAGUCUGUAAUCAUUUUAAGGGUA [A30U A68G], the self-cleavage was 1.62. In the case of GUUAACGGUCAUAGGCCAUGGAAACUAGGUGCACCAUUUCGCUGCCAGUGAAGAAAUGAACAAAGAAAAUCUGGGCCAGGCAGGCAUCAAAAGAAGUAGUCUUGCGCUCAACCAGAAAGUCUGUAAUCAUUUUAAGGGUA [A30U A96G] it was 0.89; in that of GUUAACGGUCAUAGGCCAUGGAAACUAGGGGCACCAUUUCGCUGCCAGCGAAGAAAUGAACAAAGAAAAUCUGGGCCAGGCAGGCAUCAAAAGAAAUAGUCUUGCGCUCAACCAGAAAGUCUGUAAUCAUUUUAAGGGUA [A30G U49C], 1.07; in that of GUUAACGGUCAUAGGCCAUGGAAACUAGGGGCACCAUUUCGCUGCCAGUGAAGAAAUGAACAAAGAAAAUCUGGGCCAGGCAGGCAUCAAAAGAAAUAGUCUUGCGCUCAACCAGAAAGUCUGUAACCAUUUUAAGGGUA [A30G U127C], 0.97.

Regarding GUUAACGGUCAUAGGCCAUGGAAACUAGGUGCACCAUUUCGCUGCCAGUGAAGAAAUGAACAAAGAAAAUCUGGGCCAGGCAGGCAUCAGAAGAAAUAGUCUUGCGCUCAACCAGAAAGUCUGUAAUCAUUUUAAGGGUA [A30U A90G], the self-cleavage worked out at 1.31. Turning to GUUAACGGUCAUAGGCCAUGGAAACUAGGGGCACCAUUUCGCUGCCAGUGAAGAAAUGAACAAAGAAAAUCUGGGCCAGGCAGGCAUCAAAAGAAAUAGUCUUGCGCUCAACCAGAAAGUCCGUAAUCAUUUUAAGGGUA [A30G U122C], the self-cleavage worked out at 0.84.

With GUUAACGGUCAUAGGCCAUGGAAACUAGGGGCACCAUUUCGCUGCCAGUGAAGAAAUGAACAAAGAAAAUCUGGGCCAGGCAGGCAUCAAAAGAAAUAGUCUUGCGCUCAACCAGAAAGUCUGCAAUCAUUUUAAGGGUA [A30G U124C], the self-cleavage was 0.74.

In the case of GUUAACGGUCAUAGGCCAUGGAAACUAGGGGCACCAUUUCGCUGCCAGUGAAGAAAUGAACAAAGAAAAUCUGGGCCAGGCAGGCAUCAAAAGAAAUAGUCUUGCGCUCAACCAGAAAGUCUGAAAUCAUUUUAAGGGUA [A30G U124A], the self-cleavage was 0.78. On to GUUAACGGUCAUAGGCCAUGGAAACUAGGGGCACCAUUUCGCUGCCAGUGAAGAAAUGAACAAAGAAAACCUGGGCCAGGCAGGCAUCAAAAGAAAUAGUCUUGCGCUCAACCAGAAAGUCUGUAAUCAUUUUAAGGGUA [A30G U70C], for which the self-cleavage stood at 0.75.
